In patent US20240043505A1 (UNIVERSITY OF PITTSBURGH OF THE COMMONWEALTH SYSTEM OF …, published 2024):
Where two headings read alike, the source gives them in different places.

B1: Nb76 (VHH)
VHH: DVQLVESGGGLVQAGGSLRLSCAVSGRTFSISTMGWFRQAPGKERLFVAGITWHDGSTNYADSVKGRFTISRDNAKNTVYLQMNSLKPEDTALYYCAARKSINYVQEYDYWGRGTQVTVSS
B2: Nb102 (VHH)
VHH: QVQLVESGGGLVQAGGSLRLSCAASGRTFSNSHMGWFRQAPGKEREFVAVISRSGGSTLYADSVKGRFTISRDNAKNTVYLQMNSLKPEDTAVYYCAASRTAGLTSNRSLYDYWGRGTQVTVSS
B3: Nb82 (VHH)
VHH: DVQLVESGGGLVQAGGSLGLSCAASGSIFRLTAMGWYRQAPGKQRDLVTTITSAGIPHYADSVKGRFTISRDNAKNTVYLQMNGLKPEDTAVYYCYANTLNSQLLPRAYWGQGTQVTVSS
B4: Nb11 (VHH)
VHH: HVQLVESGGGLVQAGGSLRLSCAVSGASAERVGWFRRAPGKEREFVAAIGANGGSTNYLDSVKGRFTISRDNAKNTVYLQMNSLKPQDTAVYYCAARNLETFDYTYWGRGTQVTVSS
B5: Nb78 (VHH)
VHH: QVQLVESGGGLVQAGGSLRLSCAISGASANRVGWFRRAPGKEREFVAAIGASGGMTNYLDSVKGRFTISRDNAKNTVYLQMNSLKPQDTAVYYCAARNIETAEYTYWGQGTQVTVSS
B6: Nb90 (VHH)
VHH: HVQLVESGGGLVQAGGSLRLSCAVSGRTVSSYVMGWFRQAPGKEREFVAGIGRTGMTITADSVKGRFTISRDNAKNLVYLQMNSLKSEDTAVYWCAAGVRDFAPRIDSYDYWGQGTQVTVSS
B7: Nb66 (VHH)
VHH: HVQLVESGGGLVQAGGSLRLSCAASGRTFSVNSIAWFRQAPGKEREFVATINWSGGDIYYADSVKGRFTISRDNGKNTVYLQMNSLKPTDTAVYYCAAARFYGRSIAQDYDSWGQGTQVTVSS
B8: Nb12 (VHH)
VHH: HVQLVESGGGLVQAGGSLRLTCAASGGTFSTSTMDMGWFRQAPGKEREFVAVDSWNDGRAYYADSVKGRFTISRDSAKTTLYLQMNSLKPEDTAVYYCAARTERGVYDYWGRGTQVTVSS
B9: Nb96 (VHH)
VHH: HVQLVESGGGLVQAGDSLRLSCAASGRDFSSYAMGWFRQAPGKEREFVGVISSGDVGTFYEDSVKGRFTISRDDAKNTVDLQMNSLKPEDTAVYYCAAALYVTSTRGSYAYWGQGTQVTVSS
B10: Nb6 (VHH)
VHH: HVQLVESGGGLVQAGGSLRLSCAASGRTFSTHATGWFRQAPGKEREFLATSVWLDDISRDSTYYAESVKGRFSISRDNAKDTVYLQMNSLKPEDTAVYYCAVKQRVGPGIMSAPTYDYWGQGTQVTVSS
B11: Nb64 (VHH)
VHH: QVQLVESGGGLVQAGGSLRLSCAVSGRTFSIAGMGWFRQAPGKDREFLGGITWNDGTTWYADSVKGRFTISRDNAKNMLSLRMNSLKPEDTAVYYCAAGPRLGSTPRAYDYWGQGTQVTVSS
B12: Nb99 (VHH)
VHH: QVQLVESGGGLVQTGGSLRLSCAASGSTRSIWYSGWYRQAPGKQRELVASLTSGGTTYYPDSMKGRFTISGSSGLNMVYLQMNSLRPEDTAVYSCNVRTGSGVYWGQGTQVTVSS
B13: Nb10 (VHH)
VHH: DVQLVESGGGLVQAGGSLKLSCTASESTFNFNHIDWYRQAPGKQRESVAVITNTDVTNYADSVKGRFTISRDNAKNTVYLQMNSLKPEDTAVYLCNAWRFGPTGVKVDYWGQGTQVTVSS
B14: Nb9 (VHH)
VHH: HVQLVESGGGLVQTGGSLRLSCAFSGYTFSTFPTAWFRQAPGKEREFVAGIRWNGGSRDYTEYADFVKGRFTISRDNAKNMIYLQMISLKPEDTALYYCAASHGVVDGTSVNGYRYWGQGTQVTVSS
B15: Nb92 (VHH)
VHH: HVQLVESGGGLVQAGGSLRLSCAASGRTFSAYGMGWFRQAPGKEREFVAGIARSGSEYYGDSVKGRFTISRDNAKNTVYLQMASLKAEDTGVYYCAADPTILYHALSQRTQNYRYWGPGTQVTVSS
B16: Nb97 (VHH)
VHH: HVQLVESGGGLVQAGGSLRLSCAAPGRTFSTSAMGWFRQAPGKEREFVAAIDWSNTNIHYADTVKGRFTISTDTAKNTVYLQMNNLKPEDTAVYYCAQGGWGLTQPISVDYWGKGTQVTVSS
B17: Nb95 (VHH)
VHH: QVQLVESGGGLVQAGGSLRLSCAASGRTFSSYSMGWFRQAQGKEREFVATINGNGRDTYYTNSVKGRFTISRDDATNTVYLQMNSLKPEDTAIYYCAADKDVYYGYTSFPNEYEYWGQGTQVTVSS
B18: Nb91 (VHH)
VHH: HVQLVESGGGLVQPGGSLRLSCAASGLTLNDYAIGWFRQAPGKEREGVSCISSSDGTTYYADSVKGRFTISRDNAKNTVYLQMNSLKPEDTAVYYCATDIAPFYCSWPLRTRLVEYWGQGTQVTVSS
B19: Nb94 (VHH)
VHH: QVQLVESGGGLVQAGGSLRLSCTASGGTFRSFTMAWFRQAPGKEREFVATLSWTGVGTYYADSVKGRFTISRDIAKNTVYLEMNSLIPEDTAVYYCAASPYTYSLLSRTGDYGYWGQGTQVTVSS
B20: Nb68 (VHH)
VHH: QVQLVESGGGLVQAGGSLRLSCAASGGTLRSYNMGWFRQGPGKEREFVAAISWTGLGTYYGDSVKGRFTISRDVIKNTLYLQMDSLKPEDTAIYYCAADSSTSRLHSAGSDYRYWGQGTQVTVSS
B21: Nb83 (VHH)
VHH: HVQLVESGGGLVQPGGSLRLSCAASGRSFNSYLMGWFRQAPGKEREFVAWISGSPHDIIRYRDSVKDRFTISRDNAKNTVYLQMNSLKPVDTAVYYCAVGSLRVGSFSPDYWGQGTQVTVSS
B22: Nb93 (VHH)
VHH: EVQLVESGGGLVQPGGSLRLSCAASGFTFSSYAMSWVRQAPGKGREWVAGITPGSGTFYADSVKGRFTISRDNAKNTLSLEINSLKPEDTALYYCAKCRQEFSWDFSSRDPDDFDYWGQGTQVTVSS
B23: Nb63 (VHH)
VHH: QVQLVESGGGLVQAGGSLRLSCVASGSGFEPNAMGWYRQAPGKQRELVAGITSGGNANYADSVKGRFTISRDNVKNTVYLQMNSLKPEDTAVYYCQGPACSGSGCRNYWGQGTQVTVSS
B24: Nb107 (VHH)
VHH: HVQLVESGGGLVQAGGSLRLSCAASGRAIGIHRMAWFRQAPGKERAFVAAIQWTGDMPTYADSLKGRFTISADNAKNTVSLQMTSLKPDDTAVYYCAARSATTALYDYWGQGTQVTVSS
B25: Nb89 (VHH)
VHH: HVQLVESGGGLVQAGGSLRLSCAASGGTFTTFRMAWFRQTPGKEREFVAASSWGFVNYADPVKGRFTISRDNAKNTVYLEMSSLKTEDTAVYYCAARNPGTGQYDYWGQGTQVTVSS
B26: Nb80 (VHH)
VHH: HVQLVESGGGLVQPGGSLRLSCAASGNFFLINVMSWWRQAPGNEHELHELVATITSDGRTNYGDAVQGRFTISRDNAKNTLYLQMNSLKPEDTAVYYCYAQGQGNREYWGQGTQVTVSS
B27: Nb105 (VHH)
VHH: HVQLVESGGGLVQAGGSLRLSCAVSGRTFSTYGMAWFRQAPGKERDFVATITRSGETTLYADSVKGRFTISRDNAKNTVYLQMNSLKIEDTAVYYCAVRRDSSWGYSRDLFEYDYWGQGTQVTVSS
B28: Nb74 (VHH)
VHH: HVQLVESGGGLVQAGGSLRLSCAASGRTFSSHAMAWFRQAPGKEREFVAGISWSGPYYVDSVKGRFTISTDNAKNTVYLQMNSLTPEDTAVYYCASSRGPNLYPHIGDVEYWGQGTQVTVSS

Tests used:
[1] = target: T1, SARS-CoV-2 spike receptor-binding domain (RBD) (SARS-CoV-2, UniProt P0DTC2 319-541); assay: indirect ELISA on coated RBD ('ELISA affinity')
[2] = target: SARS-CoV-2 RBD E484K mutant (SARS-CoV-2, UniProt P0DTC2 334-527)
[3] = target: K417N
[4] = target: N439K
[5] = target: Y453F
[6] = target: A475V
[7] = target: N501Y
[8] = target: T1, SARS-CoV-2 spike receptor-binding …
[9] = target: T1, SARS-CoV-2 spike receptor-binding …; remark: listed apart in the source
[10] = target: T1, SARS-CoV-2 spike receptor-binding …; assay: SPR (Biacore 3000), RBD immobilised
[11] = target: T1, SARS-CoV-2 spike receptor-binding …; remark: listed apart in the source

| Binder | IC50 [1] | also measured |
| --- | --- | --- |
| B1 | 0.17 nM |  |
| B2 | 28.4 nM |  |
| B3 | 0.86 nM |  |
| B4 | 0.39 nM |  |
| B5 | 0.61 nM |  |
| B6 | 4.03 nM |  |
| B7 | 0.33 nM |  |
| B8 | 539 nM |  |
| B9 | 0.04 nM |  |
| B10 | 0.57 nM |  |
| B11 | 0.45 nM |  |
| B12 | 0.35 nM |  |
| B13 | 0.24 nM |  |
| B14 | 0.89 nM |  |
| B15 | 4.92 nM |  |
| B16 | 0.32 nM |  |
| B17 | 2.28 nM | binding affinity fold change relative to RBD WT [2]: 1.15 fold; binding affinity fold change relative to RBD WT [3]: 1.11 fold; binding affinity fold change relative to RBD WT [4]: -2.19 fold; binding affinity fold change relative to RBD WT [5]: -1.31 fold; binding affinity fold change relative to RBD WT [6]: 1.21 fold; binding affinity fold change relative to RBD WT [7]: 1.37 fold; EC50 (read off the curve) [8]: ~6 nM; IC50 [9]: 6.05 nM |
| B18 | 1.28 nM |  |
| B19 | 0.5 nM |  |
| B20 | 6.11 nM |  |
| B21 | 1.51 nM |  |
| B22 | 1.15 nM |  |
| B23 | 0.84 nM |  |
| B24 | 0.76 nM |  |
| B25 | 1.09 nM | Kd [10]: 0.108 nM; koff [10]: 0.000624 s⁻¹; kon [10]: 5.78e+06 M⁻¹ s⁻¹ |
| B26 | 5.09 nM |  |
| B27 | 0.26 nM | binding affinity fold change relative to RBD WT [2]: 1.02 fold; binding affinity fold change relative to RBD WT [3]: -1.45 fold; binding affinity fold change relative to RBD WT [4]: 1.06 fold; binding affinity fold change relative to RBD WT [5]: 1.31 fold; binding affinity fold change relative to RBD WT [6]: -1.1 fold; binding affinity fold change relative to RBD WT [7]: -2.69 fold; EC50 (read off the curve) [11]: ~2 nM; IC50 [9]: 0.97 nM |
| B28 | 67.1 nM |  |
